# Results reported in publication PMC3968158.
# What was measured:
# CrkII SH2 domain, 1-124 = CrkII SH2 domain, 1-124 (UniProt Q64010); test: GST pull-down from infected-cell lysate, anti-Tir blot; conditions: reference: WT Tir (Δtir EPEC + ptir); sites Y474
# CrkL SH2 domain, 9-108 = CrkL SH2 domain, 9-108 (UniProt P46109); test: as above; conditions: reference: WT Tir (Δtir EPEC + ptir); sites Y474
substance,measurement,setting,value
Tir (translocated intimin receptor) (from UniProt B7UM99) Tir Y474F (Δtir EPEC + ptirY474F),binding against the reference,"CrkII SH2 domain, 1-124",lost
same,binding against the reference,"CrkL SH2 domain, 9-108",lost
